The source of these data is patent publication US5861477A (priority 1996, dated 1999).

Several values for one entry are separate records, joined by “and”; a condition that tells them apart may be missing. Equal values may be shown once.

Series [1] relates to M. lysodeikticus cell wall. Kind of series: Lysozyme activity: hydrolysis of M. lysodeikticus. The series is classed as biochemical, Micrococcus lysodeikticus. As to the method: Measurement of Lysozyme Activity. […] The decrease in turbidity was measured at 450 nm on a recording spectrophotometer. […] Kinetic constants were determined from the linear plots of 1/initial velocity (in change of absorbance/min) against 1/substrate concentration in mg/ml as described (Lineweaver, H. and Burk, D. (1934) J. Amer. Chem. Soc. 56, 658-666). […] Applicant always dedicated a separate spectrophotometer cuvette for this positive control. […] The decrease in turbidity was monitored at room temperature at 450 nm.

Series [2] has as its system M. lysodeikticus cell wall. Particulars: 0.125M NaCl; Neville et al. 1972; cited from earlier work.
Series [3] has as its system yeast RNA. The series is described as follows: Ribonuclease activity: hydrolysis of yeast RNA. Type of series: biochemical. The protocol:
Measurement of Ribonuclease Activity. The catalytic activity of RNase and RnPepz were determined by their hydrolytic effects on yeast RNA (Kunitz, M. (1946) J. Biol. Chem. 164, 563-569; Gutte, B. and […]. Biol. Chem. 246, 1922-1941). […] The decrease in absorbance at 300 nm with time was measured on the recording spectrophotometer. Reaction mixtures that contained no catalyst as well as mixtures containing LyPepz or other cyclic peptides unrelated to RNase were used as controls. The kinetic parameters of the hydrolytic activities were determined by Lineweaver-Burk plots (Lineweaver, H. and Burk, D. (1934) J. Amer. Chem. Soc. 56, 658-666) of 1/absorbance change per minute against 1/substrate concentration in mg per ml. […] The change in absorbance with the test samples (RnPepz) was correlated for the small change obtained with the same amount of unrelated peptides (negative controls) acting on the corresponding concentration of substrate. […] The effects of disulfide-bond reduction on RNase and RnPepz activities were determined by premixing each catalyst (RNase, 1.095×10^-4 μmole; […] The reactions were monitored by the decrease in absorbance at 300 nm as above. The effects of inhibitors (denatured DNA or Ag^+) on activities were also done by pre-mixing RNase or RnPepz with denatured DNA (250 μg) or with 10 molar excess of AgNO3 prior to addition to RNA, using the same amounts of catalyst and substrate described for DTT. Denaturation of DNA was done by boiling a solution in water (1 mg/ml) for 10 min, then chilling immediately in ice.

Series [4] deals with yeast RNA. Conditions: Gutte et al. 1971; Edelhock and Coleman 1956; cited from earlier work.
[5] abbreviates: 10 molar excess, pre-mixed 3 hr.
Setting [6] is: hydrolysis of M. lysodeikticus, 25° C., 0.125M NaCl.
Setting [7] is: hydrolysis of yeast RNA, 0.1M sodium acetate, pH 5.0, 25° C.

As to LYZ: hen egg lysozyme, in series [1] (setting [5]), the “activity on M. lysodeikticus in presence of histamine” value is “completely inhibited”, the “activity on M. lysodeikticus in presence of imidazole” value is “completely inhibited” and the “activity on M. lysodeikticus in presence of tryptamine” value was “completely inhibited”. Further, in series [1] (setting [6]), the Michaelis-Menten constant (Km) (as a rule, the substrate concentration at which the rate is half of its maximum) turned out to be 120.6 ± 4.0 mg/L and the kcat was 9.26 ± 0.12 OD units/μmole/sec. Moreover, the Km reported value in series [2] was 129 mg/L. Moreover, the “hydrolytic activity on yeast RNA” value with yeast RNA [3] (in words) is listed as “no effect”.

B1: RNase: bovine ribonuclease A (protein, UniProt P61823 27-150, looked up)
Ribonuclease pancreatic: KETAAAKFERQHMDSSTSAASSSNYCNQMMKSRNLTKDRCKPVNTFVHESLADVQAVCSQKNVACKNGQTNCYQSYSTMSITDCRETGSSKYPNCAYKTTQANKHIIVACEGNPYVPVHFDASV
In the case of B1, the Km reported values with yeast RNA [4] was 1.20 mg/mL and 1.25 mg/mL. Besides, the “activity on yeast RNA in presence of denatured DNA” value with yeast RNA [3] (250 μg denatured DNA) is “completely inhibited”. Further, in the series with yeast RNA [3] (10 molar excess of AgNO3), the “activity on yeast RNA in presence of Ag^+ (heavy metals)” value was “completely inhibited”. Moreover, the “hydrolytic activity on yeast RNA at 10° C.” value in the series on yeast RNA [3] (10° C.) is given as “neither RnPepz nor RNase had any measurable hydrolytic activity”. In the series with yeast RNA [3] (setting [7]), the Michaelis-Menten constant (Km) came to 1254 ± 460 mg/L and the kcat is 14.05 ± 6.85 OD units/μmole/sec.
